Laboratory results published in patent US20240417476A1 (ATYR PHARMA, published 2024).
Ends that are not written are not given here.

Columns and labels:
[1] = biological target: T1, human NRP2a v2 expressed on Expi293F cells (human, UniProt O60462 23-931); experiment: flow cytometry, Expi293F cells transfected with the target, fluorescent anti-mouse secondary; MFI signal relative to mock-transfected cells
T1 construct: cDNA Origene RCC220706; also called NRP2 v2
Experimental: (§1) Signal to noise was calculated as the staining intensity of transfected cells compared to an un-transfected ‘mock’ population.

[2] = biological target: T2, human NRP2b expressed on Expi293F cells (human); experiment: as above
T2 construct: also called full length NRP2b
T2 chain: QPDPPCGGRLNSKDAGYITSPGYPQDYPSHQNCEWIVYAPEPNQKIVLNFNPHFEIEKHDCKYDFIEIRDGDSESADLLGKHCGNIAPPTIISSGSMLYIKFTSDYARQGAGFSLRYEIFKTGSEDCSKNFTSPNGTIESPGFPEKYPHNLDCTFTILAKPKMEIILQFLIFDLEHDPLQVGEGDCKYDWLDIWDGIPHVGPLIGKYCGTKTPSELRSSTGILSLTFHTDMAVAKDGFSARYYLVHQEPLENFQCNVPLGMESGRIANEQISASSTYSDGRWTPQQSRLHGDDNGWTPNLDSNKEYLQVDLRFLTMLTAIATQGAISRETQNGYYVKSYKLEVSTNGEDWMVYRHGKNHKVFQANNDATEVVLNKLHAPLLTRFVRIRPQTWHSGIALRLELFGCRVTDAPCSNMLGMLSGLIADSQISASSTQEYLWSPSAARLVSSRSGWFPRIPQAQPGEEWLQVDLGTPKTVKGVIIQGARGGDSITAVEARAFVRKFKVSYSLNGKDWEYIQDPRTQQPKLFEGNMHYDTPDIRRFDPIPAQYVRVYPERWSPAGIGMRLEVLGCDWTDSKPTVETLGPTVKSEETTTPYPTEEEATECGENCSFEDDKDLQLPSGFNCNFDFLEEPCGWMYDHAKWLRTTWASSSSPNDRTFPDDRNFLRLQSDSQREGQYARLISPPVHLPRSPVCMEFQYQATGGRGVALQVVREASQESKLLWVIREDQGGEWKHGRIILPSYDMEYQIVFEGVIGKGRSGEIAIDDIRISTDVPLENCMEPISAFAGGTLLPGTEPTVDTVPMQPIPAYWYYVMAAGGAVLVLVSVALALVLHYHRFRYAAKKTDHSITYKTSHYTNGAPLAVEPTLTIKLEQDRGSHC
Experimental: as §1

NRP2v3 = biological target: T3, NRP2v3; experiment: as above
T3 construct: not the NanoLuc-tagged construct m33; also called human NRP2 v3 expressed on Expi293F cells; NRP2a v3
T3 chain: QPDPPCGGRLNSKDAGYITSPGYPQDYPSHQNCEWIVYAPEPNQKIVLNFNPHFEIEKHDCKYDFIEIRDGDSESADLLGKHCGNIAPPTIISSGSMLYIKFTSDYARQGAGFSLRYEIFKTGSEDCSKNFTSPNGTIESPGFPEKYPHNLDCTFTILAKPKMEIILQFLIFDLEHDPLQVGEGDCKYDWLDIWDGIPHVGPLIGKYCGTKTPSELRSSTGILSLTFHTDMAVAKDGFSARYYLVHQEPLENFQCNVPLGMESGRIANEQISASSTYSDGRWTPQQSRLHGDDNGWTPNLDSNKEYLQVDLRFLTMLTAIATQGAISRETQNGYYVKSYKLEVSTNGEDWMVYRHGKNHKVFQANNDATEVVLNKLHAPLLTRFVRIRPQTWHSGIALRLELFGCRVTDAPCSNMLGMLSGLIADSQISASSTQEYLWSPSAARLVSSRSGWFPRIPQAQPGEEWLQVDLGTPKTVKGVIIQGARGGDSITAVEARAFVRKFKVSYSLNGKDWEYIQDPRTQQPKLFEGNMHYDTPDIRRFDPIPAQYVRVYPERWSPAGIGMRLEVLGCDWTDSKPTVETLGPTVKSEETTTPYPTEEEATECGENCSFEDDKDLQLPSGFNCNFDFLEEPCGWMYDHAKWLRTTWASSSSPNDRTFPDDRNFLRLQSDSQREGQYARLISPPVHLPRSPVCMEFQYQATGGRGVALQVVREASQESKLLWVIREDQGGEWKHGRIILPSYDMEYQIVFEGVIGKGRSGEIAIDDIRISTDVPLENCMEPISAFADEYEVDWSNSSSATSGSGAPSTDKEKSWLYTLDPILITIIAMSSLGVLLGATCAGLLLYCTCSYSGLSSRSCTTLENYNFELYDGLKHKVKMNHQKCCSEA
Experimental: as §1

[3] = biological target: T4, mNRP2A peptide (biotinylated) (mouse, biotin-conjugated, site not stated); experiment: BLI, peptide on sensor, 50 nM antibody
T4 construct: also called mouse NRP2 isoform a peptide

[4] = biological target: T5, NRP2b peptide (biotinylated) (human, biotin-conjugated, site not stated); experiment: peptide ELISA
T5 construct: also called NRP2b isoform specific peptide
T5 peptide: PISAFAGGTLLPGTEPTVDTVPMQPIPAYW

[5] = biological target: T6, NRP2A peptide (biotinylated) (human, biotin-conjugated, site not stated); experiment: BLI, isoform peptide on sensor, 50 nM antibody
T6 construct: also called NPR2A; NRP2a specific peptide

[6] = biological target: T7, NRP2a_scan 7 peptide (biotinylated) (human, also: biotin-conjugated, site not given here); experiment: BLI, peptide on sensor;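 further: octet RED96e biolayer interferometry with biotin-conjugated NRP2 peptides spanning isoform-specific regions (human and mouse) loaded on biosensors, antibodies applied at 50 nM, association read over 300 s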
T7 peptide: EYEVDWSNSSSA

[7] = biological target: T8, NRP2a_scan 5 peptide (biotinylated) (human, also: biotin-conjugated, site not given here); experiment: BLI, peptide on sensor;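 further: octet RED96e biolayer interferometry with biotin-conjugated NRP2 peptides spanning isoform-specific regions (human and mouse) loaded on biosensors, antibodies applied at 50 nM, association read over 300 s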
T8 peptide: EDEIDDEYEVDW

[8] = biological target: T9, NRP2a_scan 6 peptide (biotinylated) (human, also: biotin-conjugated, site not given here); experiment: BLI, peptide on sensor;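 further: octet RED96e biolayer interferometry with biotin-conjugated NRP2 peptides spanning isoform-specific regions (human and mouse) loaded on biosensors, antibodies applied at 50 nM, association read over 300 s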
T9 peptide: IDDEYEVDWSNS

[9] = biological target: T10, NRP2a_scan 2 peptide (biotinylated) (human, also: biotin-conjugated, site not given here); experiment: BLI, peptide on sensor;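 further: octet RED96e biolayer interferometry with biotin-conjugated NRP2 peptides spanning isoform-specific regions (human and mouse) loaded on biosensors, antibodies applied at 50 nM, association read over 300 s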
T10 peptide: PEIHEREGYEDE

[10] = biological target: T11, Mid-mNRP2A peptide (biotinylated) (mouse, biotin-conjugated, site not stated); experiment: BLI, peptide on sensor
T11 peptide: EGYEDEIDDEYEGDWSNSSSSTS

[11] = biological target: T12, NRP2a_scan 1 peptide (biotinylated) (human, also: biotin-conjugated, site not given here); experiment: BLI, peptide on sensor
T12 peptide: VDIPEIHEREGY

[12] = biological target: T13, Mid-NRP2A peptide (biotinylated) (human, biotin-conjugated, site not stated); experiment: BLI, peptide on sensor
T13 peptide: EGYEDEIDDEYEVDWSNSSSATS

[13] = biological target: T14, NRP2a_scan 3 peptide (biotinylated) (human, also: biotin-conjugated, site not given here); experiment: BLI, peptide on sensor
T14 peptide: HEREGYEDEIDD

[14] = biological target: T15, NRP2a_scan 4 peptide (biotinylated) (human, also: biotin-conjugated, site not given here); experiment: BLI, peptide on sensor
T15 peptide: EGYEDEIDDEYE

[15] = biological target: Short NRP2A peptide (biotinylated) (human, biotin-conjugated, site not stated); experiment: BLI, peptide on sensor
[16] = biological target: mNRP2b peptide (biotinylated) (mouse, biotin-conjugated, site not stated); experiment: BLI, peptide on sensor
Sequence of mNRP2b peptide (biotinylated) (mouse, biotin-conjugated, site not stated) (peptide, as listed by the source): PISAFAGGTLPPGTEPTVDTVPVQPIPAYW

[17] = biological target: T8, NRP2a_scan 5 peptide (biotinylated); experiment: BLI, peptide on sensor, 50 nM antibody
[18] = biological target: T9, NRP2a_scan 6 peptide (biotinylated); experiment: BLI, peptide on sensor, 50 nM antibody
[19] = biological target: T13, Mid-NRP2A peptide (biotinylated); experiment: BLI, peptide on sensor, 50 nM antibody

| Binder | binding result [1] | binding result [2] | binding result (NRP2v3) | binding result [3] | binding result [4] | binding result [5] | binding result [6] | binding result [7] | binding result [8] | binding result [9] | binding result [10] | binding result [11] | binding result [12] | binding result [13] | binding result [14] | binding result [15] | binding result [16] | binding result [17] | binding result [18] | binding result [19] |
| --- | --- | --- | --- | --- | --- | --- | --- | --- | --- | --- | --- | --- | --- | --- | --- | --- | --- | --- | --- | --- |
| aNRP2-408v2 (antibody, V domains shown, Mouse monoclonal) VH: EVKLVESGGGLVKPGGSLKLSCAASGFTFSSYAMSWVRQTPEKRLEWVASISRGSITYYPDSVKGRFTISRDNAGNILYLQMSSLRSEDTAMYYCAREYYYAMDYWGQGTSVTVSS VL: DIQMTQSPSSLSASLGERVSLTCRASQDIGSRLNWLQQEPDGTIKRLIYATSSLDSGVPKRFSGSRSGSDYSLTISSLESEDFVDYYCLQYASSPYTFGGGTKLEIK | binds | no binding | no binding | binds | no binding (tested: <3x blank) | binds | no binding (tested: 50 nM) | no binding (tested: 50 nM) | no binding (tested: 50 nM) | no binding (tested: 50 nM) | no binding (tested: 50 nM) | no binding (tested: 50 nM) | no binding (tested: 50 nM) | no binding (tested: 50 nM) | no binding (tested: 50 nM) | no binding (tested: 50 nM) | no binding (tested: 50 nM) | – | – | – |
| aNRP2-405v2 (antibody, V domains shown, Mouse monoclonal) VH: EVMLVESGGGLVKPGGSLKLSCAASGFTFRRYAMSWVRQTPEKGLEWVATITSGGSYTYYLDSVKGRITISRDNAKNTLYLQMSSLRSEDTAMYYCARHGIYGGFDYWGQGTTLTVSS VL: DVLMTQTPLSLPVSLGDQASISCRSSQSIVHSDGNTYLEWYLQKPGQSPNLLIYKVSNRFSGVPDRFSGSGSGTDFTLKISRVEAEDLGIYYCFQGSHVPFTFGSGTKLEIK | – | no binding | no binding | binds | no binding (tested: <3x blank) | binds | no binding (tested: 50 nM) | no binding (tested: 50 nM) | no binding (tested: 50 nM) | no binding (tested: 50 nM) | no binding (tested: 50 nM) | no binding (tested: 50 nM) | no binding (tested: 50 nM) | no binding (tested: 50 nM) | no binding (tested: 50 nM) | no binding (tested: 50 nM) | no binding (tested: 50 nM) | – | – | – |
| aNRP2-409v3 (antibody, V domains shown, Mouse monoclonal; also called 409 v2; aNRP2-409v2) VH: EVQFVETGGGLVQPKGSLKLSCAASGFTFNTNAMNWVRQAPGKGLEWVARIRTKSNNYATYYADSVKDRFTISRDDSQNILYLQMNNLKTEDTAMYYCVTLDSSGYVWFAYWGQGTLVTVSA VL: DIQMTQSPSSLSASLGERVSLTCRASQDIGSRLNWLQQEPDGTIKRLIYATSSLDSGVPKRFSGSRSGSDYSLTISSLESEDFVDYYCLQYASSPYTFGGGTKLEIK | – | no binding | no binding | – | no binding (tested: <3x blank) | – | no binding (tested: 50 nM) | no binding (tested: 50 nM) | no binding (tested: 50 nM) | no binding (tested: 50 nM) | no binding (tested: 50 nM) | no binding (tested: 50 nM) | no binding (tested: 50 nM) | no binding (tested: 50 nM) | no binding (tested: 50 nM) | no binding (tested: 50 nM) | no binding (tested: 50 nM) | – | – | – |
| aNRP2-403v2 (antibody, V domains shown, Mouse monoclonal) VH: QVQLQQPGAELVKPGASVKLSCKASGYTFTSYWMHWVKQRPGRGLEWIGRIDPNSGDTKYNEKFKSKATLTVDKPSSTAYMQVSSLTSEDSAVYYCARSYDYALEYWGQGTSVTVSS VL: DVVMTQTPLSLPVSLGDQASISCRSSQSLVHSNGNTYLHWFLQKPGQSPNLLIYKVSNRFSGVPDRFSGSGSGTDFTLKISRVEAEDLGVYFCSQNTRVPRTFGGGTKLEIK | – | – | – | – | no binding (tested: <3x blank) | binds | no binding (tested: 50 nM) | – | – | no binding (tested: 50 nM) | – | no binding (tested: 50 nM) | – | no binding (tested: 50 nM) | no binding (tested: 50 nM) | no binding (tested: 50 nM) | no binding (tested: 50 nM) | binds | binds | binds |
